This is an account of results in publication PMC5737387 (Nucleic Acids Research, 2017).

Test [1] addresses p44ct(368–534) (Chaetomium thermophilum). The experiment in a line: ITC. In general terms: Isothermal titration calorimetry measures the heat released or taken up as one component is titrated into another.
Another test has as its target full length p44hs (Homo sapiens, UniProt Q13888 1-395). The experiment in a line: co-IP.

full length p44hs, sequence (Q13888 whole entry): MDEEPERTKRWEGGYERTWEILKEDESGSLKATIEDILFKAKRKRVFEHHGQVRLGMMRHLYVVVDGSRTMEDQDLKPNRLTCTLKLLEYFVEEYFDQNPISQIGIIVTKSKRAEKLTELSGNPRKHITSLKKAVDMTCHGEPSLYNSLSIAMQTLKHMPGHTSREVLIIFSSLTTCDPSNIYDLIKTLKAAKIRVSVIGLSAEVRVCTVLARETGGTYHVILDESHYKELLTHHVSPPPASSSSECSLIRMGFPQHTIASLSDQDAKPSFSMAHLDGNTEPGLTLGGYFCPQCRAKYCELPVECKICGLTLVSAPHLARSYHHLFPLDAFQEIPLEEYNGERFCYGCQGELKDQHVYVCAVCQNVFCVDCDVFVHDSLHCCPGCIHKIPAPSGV

In test [1], p34ct(1–277) (domain or fragment) displayed a Kd of 11 nM, a dH of -25 kcal/mol and a stoichiometry N of 0.71.

B1: full length p34hs (natural protein)
chain: MVSDEDELNLLVIVVDANPIWWGKQALKESQFTLSKCIDAVMVLGNSHLFMNRSNKLAVIASHIQESRFLYPGKNGRLGDFFGDPGNPPEFNPSGSKDGKYELLTSANEVIVEEIKDLMTKSDIKGQHTETLLAGSLAKALCYIHRMNKEVKDNQEMKSRILVIKAAEDSALQYMNFMNVIFAAQKQNILIDACVLDSDSGLLQQACDITGGLYLKVPQMPSLLQYLLWVFLPDQDQRSQLILPPPVHVDYRAACFCHRNLIEIGYVCSVCLSIFCNFSPICTTCETAFKISLPPVLKAKKKKLKVSA
As to B1, the binding result with full length p44hs is “binds”.

Broadly, the Kd is the constant that tells how readily two partners part at equilibrium. Low values mean higher affinity, high ones lower affinity. In general, stoichiometry N refers to a count of units in the complex or per binding partner.
